Patent US20070269440A1, “Stimulators of osteoblastogenesis and applications of the same” (Board of Trustees of the University of Arkansas, priority 2006, published 2007)

What was measured:
[1] = system: distracted tibia of 21-month-old C57BL6 mice; assay: Distraction osteogenesis in aged mice, new bone in DO gap by histology; format: in vivo, mouse; conditions: 21-month old mice, sTNF-RI 8.0 mg/kg s.c. every other day, 3-day latency, 14 days of distraction; control 31.2±12.4%, p<0.009
From the text: After radiography, the distracted tibiae were decalcified in 5% formic acid. The specimens were paraffin-embedded and cut into 5-7 micron longitudinal (coronal) sections on a microtome (Leitz 1512, Wetzlar, Germany) for staining (hematoxylin & eosin). The sections chosen for analysis were selected to represent a central or near central gap location. This was accomplished by choosing slides that contained all four full thickness cortices with intact marrow spaces on both the proximal and distal ends of the distraction gap. All organized osteoid/sinusoid columns were defined as new bone. We defined periosteal new bone as that outside of each cortex and endosteal new bone as that within the cortices. […] The distraction gap area was outlined from the outside corners of the two proximal and the two distal cortices forming a quadrilateral region of interest, and the area of that region (gap area) was recorded. Both the proximal and distal endosteal new bone matrix, which is easily distinguished from the central fibrous tissue at the PMF, was outlined and the area recorded (new bone area). The percentage of new bone within the distraction gap was calculated by dividing new bone area/gap area (8, 9-11). […]

[2] = system: distracted tibia of 21-month-old C57BL6 mice; assay: Distraction osteogenesis in aged mice, new bone in DO gap by single-beam radiography; format: in vivo, mouse; conditions: 21-month old mice, sTNF-RI 8.0 mg/kg s.c. every other day, 3-day latency, 14 days of distraction; control 27.3±8.4%, p<0.038
From the text: For initial radiography a Xerox Micro 50 closed system radiography unit (Xerox, Pasadena, Calif.) was used at 40 kilovolts (3 mA) for 20 seconds with Kodak X-OMAT film to radiograph the specimens. For quantitation, the radiographs and histology slides are video recorded by radio camera under low power (1.25× objective) microscopic magnification and transferred into a computer (Macintosh IIx Image 1.28c). The radiographs allow for quantitation of mineralized bone within the distraction gap. The measured distraction gap area was outlined from the outside corners of the two proximal and the two distal cortices forming a quadrilateral region of interest. The mineralized new bone area in the gap was determined by outlining the regions with radiodensity equivalent to or greater than the adjacent medullary bone. Mean pixel density of the defined distraction gap was measured using NIH Image on an arbitrary 256 degree scale. […] The percentage of new mineralized bone area within the distraction gap (% new bone) was calculated by dividing mineralized bone area/gap area. (6, 7).
Twenty-four 21-month-old C57BL6 mice underwent placement of an external fixator and osteotomy to the left tibia. The surgeries were completed over a four-day period. After surgeries there were eleven mice in the control group (one died during surgery) and twelve mice in the group to be treated with sTNF-RI. […]

B1: sTNF-RI: soluble TNF receptor Type I, a TNF blocker (TNF antagonist) (protein, UniProt P19438 30-211, looked up)
extracellular domain: LVPHLGDREKRDSVCPQGKYIHPQNNSICCTKCHKGTYLYNDCPGPGQDTDCRECESGSFTASENHLRHCLSCSKCRKEMGQVEISSCTVDRDTVCGCRKNQYRHYWSENLFQCFNCSLCLNGTVHLSCQEKQNTVCTCHAGFFLRENECVSCSNCKKSLECTKLCLPQIENVKGTEDSGTT
modifications: extracellular domain
- Mineralization of the DO gap, as measured histologically (% of the distraction gap) [1]: 76.1±7.5 % SEM
- Mineralization of the DO gap, as measured from the radiographs (% of the distraction gap) [2]: 55.2±8.8 % SEM
